In PMC5359625, “The Interrelationship between Abscisic Acid and Reactive Oxygen Species Plays a Key Role in Barley Seed Dormancy and Germination”:

T1: GST-HvABI5 (Hordeum vulgare, UniProt Q8GTR6 1-353)
T1 sequence: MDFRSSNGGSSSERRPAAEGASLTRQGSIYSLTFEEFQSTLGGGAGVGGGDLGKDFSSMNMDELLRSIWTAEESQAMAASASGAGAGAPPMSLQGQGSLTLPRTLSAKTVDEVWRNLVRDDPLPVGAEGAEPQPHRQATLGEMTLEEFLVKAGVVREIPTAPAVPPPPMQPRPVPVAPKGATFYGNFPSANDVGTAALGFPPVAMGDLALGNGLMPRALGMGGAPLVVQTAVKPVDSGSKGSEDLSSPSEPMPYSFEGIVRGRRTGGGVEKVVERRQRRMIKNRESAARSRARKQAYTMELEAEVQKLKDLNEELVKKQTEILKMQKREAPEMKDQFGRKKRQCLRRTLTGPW

B1: HvCAT2-probe (HvCAT2 promoter, ABRE) (dsDNA)
DNA 1: CACACACACGCACTACGTTCCGAGCATTGCGTCGCGGTGGGTGAG
DNA 2: CTCACCCACCGCGACGCAATGCTCGGAACGTAGTGCGTGTGTGTG
B2: unlabeled HvCAT2 probe competitor (dsDNA)
DNA 1: CACACACACGCACTACGTTCCGAGCATTGCGTCGCGGTGGGTGAG
DNA 2: CTCACCCACCGCGACGCAATGCTCGGAACGTAGTGCGTGTGTGTG

What was measured:
[1] = biological target: T1, GST-HvABI5; experiment: EMSA; DIG Gel Shift Kit 2nd Generation (Roche), manufacturer's conditions; buffer, salt, pH and temperature not stated; conditions: protein: recombinant; tags: N-terminal GST (pGEX); chain copies: 2; label: DIG; blunt
[2] = biological target: T1, GST-HvABI5; experiment: competition; 100x molar excess unlabeled competitor vs DIG-labeled N1; DIG Gel Shift Kit 2nd Generation (Roche), manufacturer's conditions; buffer, salt, pH and temperature not stated; conditions: protein: recombinant; tags: N-terminal GST (pGEX); chain copies: 2; label: none; blunt

Binder	binding result [1]	binding result [2]
B1	binds	–
B2	–	binds
